Experimental data published in patent US20260115250A1 (CHARACTER BIOSCIENCES, published 2026).

Columns and labels:
[1] = target: T1, Low Density Lipoprotein Receptor (LDLR), recombinant (UniProt P01130 22-788, limits assumed); assay: SPR multi-cycle kinetics, immobilized LDLR, high surfactant preparation (HBS-P+), 1:1 model
T1 construct: also called Recombinant LDLR
Description: The table shown in FIG. 23 illustrates LDLR binding data (SPR), using a high surfactant preparation. Recombinant LDLR was diluted in 10 mM acetate buffer pH 4.5 and amine coupled to a CM5 chip at 1000 RU. Peptides were diluted to 5 μM in running buffer (HBS-P+, 1 mM CaCl2) and serially diluted 1:3 for 5 total concentrations. […] Between cycles, the chip surface was regenerated with 3 injections of 50 mM NaOH/100 mM EDTA. Multi-Cycle Kinetics was performed on a Biacore Insight Evaluation Software and binding kinetics were analyzed with a 1:1 binding model.

[2] = target: T1, Low Density Lipoprotein Receptor …; assay: SPR multi-cycle kinetics, immobilized LDLR, low-surfactant preparation (HBS-P), peptide:DMPC complex against peptide alone
Description: Recombinant LDLR was diluted in 10 mM acetate buffer pH 4.5 and amine coupled to a CM5 chip at 1000 RU. Peptides were diluted to 5 μM in running buffer (HBS-P, 1 mM CaCl2) and serially diluted 1:3 for 5 total concentrations. In a separate preparation, peptides were diluted to 1 μM in running buffer containing 25 μM DMPC and serially diluted 1:3 for 5 total concentrations in running buffer. Peptide: DMPC complexes were incubated for 1 hour prior to use. […] Between cycles, the chip surface was regenerated with 3 injections of 50 mM NaOH/100 mM EDTA. Multi-Cycle Kinetics was performed on a Biacore Insight Evaluation Software and binding kinetics were analyzed with a 1:1 binding model.

[3] = target: ATP binding cassette subfamily A member 1 (ABCA1), endogenous in ARPE-19 cells (human, UniProt O95477 1-2261); assay: cell-based or functional assay
[4] = target: ABCA1, endogenous in J774 murine macrophage cells (murine, UniProt P41233 1-2261); assay: cell-based or functional assay
ABCA1, endogenous in J774 murine macrophage cells, sequence (P41233 whole entry): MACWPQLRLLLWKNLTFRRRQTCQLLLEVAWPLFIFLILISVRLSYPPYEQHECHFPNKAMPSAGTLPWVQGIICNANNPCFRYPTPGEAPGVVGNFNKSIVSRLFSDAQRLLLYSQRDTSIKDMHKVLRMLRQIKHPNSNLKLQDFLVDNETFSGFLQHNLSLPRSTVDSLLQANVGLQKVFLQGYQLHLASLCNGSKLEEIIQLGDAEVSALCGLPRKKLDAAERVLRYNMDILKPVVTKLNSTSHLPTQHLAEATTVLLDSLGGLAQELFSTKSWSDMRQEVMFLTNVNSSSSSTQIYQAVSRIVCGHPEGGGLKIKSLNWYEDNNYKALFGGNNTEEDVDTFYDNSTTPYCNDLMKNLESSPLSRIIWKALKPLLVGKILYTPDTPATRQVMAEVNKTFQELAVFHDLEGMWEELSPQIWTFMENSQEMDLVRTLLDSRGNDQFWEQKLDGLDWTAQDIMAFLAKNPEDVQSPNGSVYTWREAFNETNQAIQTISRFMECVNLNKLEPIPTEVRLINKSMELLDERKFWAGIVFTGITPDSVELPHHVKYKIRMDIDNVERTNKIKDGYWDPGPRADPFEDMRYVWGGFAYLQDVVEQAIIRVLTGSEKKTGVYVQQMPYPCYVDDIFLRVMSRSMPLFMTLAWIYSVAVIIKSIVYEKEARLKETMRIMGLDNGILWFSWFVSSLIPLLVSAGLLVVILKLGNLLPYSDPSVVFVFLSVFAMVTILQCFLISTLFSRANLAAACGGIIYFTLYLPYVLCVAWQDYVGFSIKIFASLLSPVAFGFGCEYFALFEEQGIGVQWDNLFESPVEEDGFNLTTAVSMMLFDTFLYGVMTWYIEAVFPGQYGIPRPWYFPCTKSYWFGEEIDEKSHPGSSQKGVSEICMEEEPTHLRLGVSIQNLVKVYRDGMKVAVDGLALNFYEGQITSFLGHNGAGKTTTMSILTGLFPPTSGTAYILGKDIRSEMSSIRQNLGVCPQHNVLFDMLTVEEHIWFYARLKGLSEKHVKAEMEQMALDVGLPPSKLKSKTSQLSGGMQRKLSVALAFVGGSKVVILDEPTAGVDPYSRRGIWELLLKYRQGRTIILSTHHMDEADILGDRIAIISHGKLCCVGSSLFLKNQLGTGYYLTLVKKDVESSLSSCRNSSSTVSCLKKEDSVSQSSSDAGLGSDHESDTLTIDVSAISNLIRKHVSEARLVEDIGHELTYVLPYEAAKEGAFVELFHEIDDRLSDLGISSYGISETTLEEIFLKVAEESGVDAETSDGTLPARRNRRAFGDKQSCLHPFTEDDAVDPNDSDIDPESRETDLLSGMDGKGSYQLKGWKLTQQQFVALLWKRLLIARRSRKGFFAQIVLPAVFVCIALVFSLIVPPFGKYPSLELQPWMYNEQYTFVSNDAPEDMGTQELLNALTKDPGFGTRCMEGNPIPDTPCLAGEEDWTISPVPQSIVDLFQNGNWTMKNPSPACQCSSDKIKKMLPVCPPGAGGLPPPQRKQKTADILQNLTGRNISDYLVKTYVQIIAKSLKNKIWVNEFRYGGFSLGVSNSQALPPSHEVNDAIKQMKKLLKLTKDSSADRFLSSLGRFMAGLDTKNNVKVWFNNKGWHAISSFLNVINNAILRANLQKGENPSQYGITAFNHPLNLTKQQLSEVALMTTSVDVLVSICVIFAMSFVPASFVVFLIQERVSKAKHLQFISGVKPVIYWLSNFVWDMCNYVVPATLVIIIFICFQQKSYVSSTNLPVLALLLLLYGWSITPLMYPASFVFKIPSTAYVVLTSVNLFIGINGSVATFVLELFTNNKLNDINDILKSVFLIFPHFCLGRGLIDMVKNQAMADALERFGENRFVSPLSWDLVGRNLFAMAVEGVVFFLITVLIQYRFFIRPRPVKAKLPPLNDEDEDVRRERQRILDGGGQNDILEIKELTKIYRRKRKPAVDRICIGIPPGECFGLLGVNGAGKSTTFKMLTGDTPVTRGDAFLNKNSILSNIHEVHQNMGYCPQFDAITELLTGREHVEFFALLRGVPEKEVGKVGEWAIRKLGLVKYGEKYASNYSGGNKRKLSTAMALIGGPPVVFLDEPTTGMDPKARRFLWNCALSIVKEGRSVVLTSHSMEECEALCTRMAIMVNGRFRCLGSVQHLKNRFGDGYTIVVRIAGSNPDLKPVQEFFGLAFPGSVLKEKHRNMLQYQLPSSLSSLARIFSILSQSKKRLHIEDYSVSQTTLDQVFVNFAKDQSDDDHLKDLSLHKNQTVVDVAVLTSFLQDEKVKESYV

ATP binding cassette subfamily A member 1 (ABCA1), endogenous in ARPE-19 cells, sequence (O95477 whole entry): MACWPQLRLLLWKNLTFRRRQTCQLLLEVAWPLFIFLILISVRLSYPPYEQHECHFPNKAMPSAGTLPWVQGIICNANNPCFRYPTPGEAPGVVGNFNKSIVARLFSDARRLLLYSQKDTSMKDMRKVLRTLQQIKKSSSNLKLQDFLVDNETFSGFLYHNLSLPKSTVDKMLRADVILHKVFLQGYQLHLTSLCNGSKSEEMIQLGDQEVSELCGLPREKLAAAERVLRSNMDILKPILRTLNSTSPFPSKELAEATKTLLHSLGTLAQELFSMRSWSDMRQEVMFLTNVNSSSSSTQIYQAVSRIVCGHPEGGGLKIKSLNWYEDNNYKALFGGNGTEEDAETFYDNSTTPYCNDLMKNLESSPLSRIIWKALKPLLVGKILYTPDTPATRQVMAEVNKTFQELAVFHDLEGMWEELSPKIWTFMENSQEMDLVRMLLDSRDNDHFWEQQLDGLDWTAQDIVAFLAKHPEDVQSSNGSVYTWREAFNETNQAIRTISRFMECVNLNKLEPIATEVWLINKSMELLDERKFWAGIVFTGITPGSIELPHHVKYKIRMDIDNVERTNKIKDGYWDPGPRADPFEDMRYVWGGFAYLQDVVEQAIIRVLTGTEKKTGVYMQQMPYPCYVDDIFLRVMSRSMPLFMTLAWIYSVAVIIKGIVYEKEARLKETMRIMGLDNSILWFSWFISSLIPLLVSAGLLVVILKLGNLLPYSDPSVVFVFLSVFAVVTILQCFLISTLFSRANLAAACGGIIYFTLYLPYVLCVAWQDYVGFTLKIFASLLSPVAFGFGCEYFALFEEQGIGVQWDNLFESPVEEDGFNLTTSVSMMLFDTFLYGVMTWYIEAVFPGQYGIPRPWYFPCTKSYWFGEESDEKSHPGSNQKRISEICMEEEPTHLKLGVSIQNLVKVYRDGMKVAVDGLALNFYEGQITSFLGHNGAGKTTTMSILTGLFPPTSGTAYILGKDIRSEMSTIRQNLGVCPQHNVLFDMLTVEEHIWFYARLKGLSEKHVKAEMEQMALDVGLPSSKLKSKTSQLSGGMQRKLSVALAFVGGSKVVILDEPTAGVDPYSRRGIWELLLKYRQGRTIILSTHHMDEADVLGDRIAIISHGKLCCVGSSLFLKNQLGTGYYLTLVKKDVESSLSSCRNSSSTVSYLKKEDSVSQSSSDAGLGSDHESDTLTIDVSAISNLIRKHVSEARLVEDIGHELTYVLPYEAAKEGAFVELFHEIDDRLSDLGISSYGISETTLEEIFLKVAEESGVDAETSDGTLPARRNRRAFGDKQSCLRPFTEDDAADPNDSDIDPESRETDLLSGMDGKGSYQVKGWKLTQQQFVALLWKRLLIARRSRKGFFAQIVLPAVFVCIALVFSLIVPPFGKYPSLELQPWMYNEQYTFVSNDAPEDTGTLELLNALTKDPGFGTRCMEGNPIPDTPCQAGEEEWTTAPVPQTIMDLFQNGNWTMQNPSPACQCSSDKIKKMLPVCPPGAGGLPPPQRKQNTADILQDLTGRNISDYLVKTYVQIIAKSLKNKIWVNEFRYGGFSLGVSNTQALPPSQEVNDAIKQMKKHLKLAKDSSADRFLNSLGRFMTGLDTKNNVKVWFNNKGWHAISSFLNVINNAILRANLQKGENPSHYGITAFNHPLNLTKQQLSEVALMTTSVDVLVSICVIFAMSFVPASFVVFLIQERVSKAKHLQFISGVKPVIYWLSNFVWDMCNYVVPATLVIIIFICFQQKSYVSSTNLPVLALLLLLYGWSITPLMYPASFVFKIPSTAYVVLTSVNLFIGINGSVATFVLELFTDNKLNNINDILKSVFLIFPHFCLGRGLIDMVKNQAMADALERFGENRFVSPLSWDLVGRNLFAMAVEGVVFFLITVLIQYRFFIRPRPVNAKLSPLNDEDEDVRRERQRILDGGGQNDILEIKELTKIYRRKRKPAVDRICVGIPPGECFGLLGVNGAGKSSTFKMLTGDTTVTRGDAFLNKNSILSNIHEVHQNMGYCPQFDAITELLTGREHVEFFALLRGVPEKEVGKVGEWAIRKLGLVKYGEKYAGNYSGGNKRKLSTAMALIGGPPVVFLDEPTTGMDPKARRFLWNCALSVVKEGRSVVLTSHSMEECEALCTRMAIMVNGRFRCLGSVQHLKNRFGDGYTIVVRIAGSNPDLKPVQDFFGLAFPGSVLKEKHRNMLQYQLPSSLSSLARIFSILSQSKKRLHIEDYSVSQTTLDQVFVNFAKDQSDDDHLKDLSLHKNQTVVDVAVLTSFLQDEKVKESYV

## HLRKLRKRLLRSLVSQYRQTVTDYGKDL [T-110]
[1]
  Kd: < 10 µM
[2]
  change in LDLR binding in the presence of DMPC lipid: > 2 fold

## HLRKLRKRLLRSLVSQYFQTVTDYGKDL [T-109]
[1]
  Kd: < 10 µM
[2]
  change in LDLR binding in the presence of DMPC lipid: > 2 fold

## HLRKLVKRLLRSLVSQYRQTVTDYGEDL [T-111]
[1]
  Kd: < 10 µM
[2]
  change in LDLR binding in the presence of DMPC lipid: > 2 fold

B1: T-117 (peptide)
peptide: RSGADALESALKELKRFIREWTLGQSTEELRVRLASHLRKLRKRLLRDADDLQKRLAVYQA
[2]
  change in LDLR binding in the presence of DMPC lipid: > 2 fold

## LVQYRGEVQAMLGQSTEELRVRLASHLRKLRKRLLRDADDLQKRLAVYQA [T-070]
[2]
  change in LDLR binding in the presence of DMPC lipid: > 2 fold

## LASHLRKLRKRLLRSLVSQYFQTVTDYGKDLM [T-065]
[1]
  Kd: < 10 µM
[2]
  change in LDLR binding in the presence of DMPC lipid: > 2 fold

## LARHLRKLRKRLARSLVSQYFQTVTDYGKDLM [T-066]
[1]
  Kd: < 10 µM
[2]
  change in LDLR binding in the presence of DMPC lipid: > 2 fold

## HLRKLRKRLLRDGDKLQDRLAEYQARAKEAFDR [T-040]
[1]
  Kd: < 10 µM

## HLRKLRKRLLRDGDKLQKRLAEYQARAKEAFDR [T-052]
[1]
  Kd: < 10 µM

## HLRKLVKRLFRDGDKLQDRLAEYQARAKEAFDR [T-059]
[1]
  Kd: < 10 µM

## HLRRLRRRLLRDGDKLQDRLAEYQARAKEAFDR [T-041]
[1]
  Kd: < 10 µM

## HLRKLRKRLLRDGDKLYDRLAEYYARAKEAFDR [T-062]
[1]
  Kd: < 10 µM

## HLRKLRKRLLRDGDKLQDRLAEYQARAREAFDR [T-055]
[1]
  Kd: < 10 µM

## HLRKLRKRLLRDADDLQKRLAEYQARAKEAFDR [T-064]
[1]
  Kd: < 10 µM

## LASHLRKLRKRLLRDADDLQKRLAVYQAGAREGAER [T-046]
[1]
  Kd: < 10 µM

## LARHLRKLRKRLARDADDLQKRLAVYQAGAREGAER [T-047]
[1]
  Kd: < 10 µM

## LASHLRKLRKRLLRDGDKLQDRLAEYQARAKEAFDR [T-048]
[1]
  Kd: < 10 µM

## LARHLRKLRKRLARDGDKLQDRLAEYQARAKEAFDR [T-049]
[1]
  Kd: < 10 µM

B2: T-115 (peptide)
peptide: DHINKVQRKVTHEIERLFLGQSTEELRVRLASHLRKLRKRLLRDADDLQKRLAVYQA
[1]
  Kd: < 10 µM
[2]
  change in LDLR binding in the presence of DMPC lipid: > 2 fold

B3: T-069 (peptide)
peptide: VRGRLVQYRGEVQAMLGQSTEELRVRLASHLRKLRKRLLRDADDLQKRLAVYQA
[1]
  Kd: < 10 µM

## RSGADALESALKELKRFIREWT [T-101]
[3]
  EC50, membrane ABCA1 stability in ARPE-19 cells treated with mCRP (western blot): 3.5 µM
[4]
  EC50, membrane ABCA1 stability in J774 cells (western blot of membrane ABCA1 after 8-Br-cAMP washout): 3.7 µM

B4: T-113 (peptide)
peptide: WKDFGERVERALREQFEDLGQSTEELRVRLASHLRKLRKRLLRDADDLQKRLAVYQA
[1]
  Kd: < 10 µM
[2]
  change in LDLR binding in the presence of DMPC lipid: > 2 fold

B5: T-112 (peptide)
peptide: YKDFGERVERALGRQLEMLGQSTEELRVRLASHLRKLRKRLLRDADDLQKRLAVYQA
[1]
  Kd: < 10 µM
[2]
  change in LDLR binding in the presence of DMPC lipid: > 2 fold

B6: T-114 (peptide)
peptide: LKDFGERVARALREQFEDLGQSTEELRVRLASHLRKLRKRLLRDADDLQKRLAVYQA
[1]
  Kd: < 10 µM
[2]
  change in LDLR binding in the presence of DMPC lipid: > 2 fold

B7: T-116 (peptide)
peptide: DAWERFRALFKELADYFRLGQSTEELRVRLASHLRKLRKRLLRDADDLQKRLAVYQA
[1]
  Kd: < 10 µM
[2]
  change in LDLR binding in the presence of DMPC lipid: > 2 fold

## DAWERFRALFKELADYFR [T-087]
[3]
  EC50, membrane ABCA1 stability in ARPE-19 cells treated with mCRP (western blot): 4.6 µM
[4]
  EC50, membrane ABCA1 stability in J774 cells (western blot of membrane ABCA1 after 8-Br-cAMP washout): 1.51 µM

B8: T-068 (peptide)
peptide: MEDVRGRLVQYRGEVQAMLGQSTEELRVRLASHLRKLRKRLLRDADDLQKRLAVYQA
[1]
  Kd: < 10 µM
[2]
  change in LDLR binding in the presence of DMPC lipid: > 2 fold
